Publication PMC5264208, “Transitional changes in the CRP structure lead to the exposure of proinflammatory binding sites” (Nature Communications, 2017)

Assays:
[1] = target: T1, human complement factor 1q (human, UniProt P02745 23-245; P02746 28-253; P02747 29-245); test: real-time fluorescence binding (LigandTracer); human C1q (60 ug/ml) spotted on nitrocellulose; CMFDA-labelled THP-1 microvesicles preincubated 2 h at 37 °C with pCRP or mCRP (100 ug/ml) and added at 20 ug/ml; the read-out is the fluorescence of the microvesicles that carry the CRP; settings: both partners purified
T1 construct: Complement C1q subcomponent subunit A, human; Complement C1q subcomponent subunit B, human; Complement C1q subcomponent subunit C, human; also called C1q; complement C1q; source: bought: Merck Chemicals GmbH; copies: 6 + 6 + 6
T1 sequence (P02745 23-245, chain 1 of 3): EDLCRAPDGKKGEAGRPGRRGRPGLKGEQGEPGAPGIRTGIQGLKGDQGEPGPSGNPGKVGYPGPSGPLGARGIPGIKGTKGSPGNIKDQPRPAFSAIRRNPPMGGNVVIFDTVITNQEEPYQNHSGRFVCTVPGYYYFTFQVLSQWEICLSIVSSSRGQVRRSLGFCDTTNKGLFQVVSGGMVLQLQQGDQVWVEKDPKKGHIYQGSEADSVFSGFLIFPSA
T1 sequence (P02746 28-253, chain 2 of 3): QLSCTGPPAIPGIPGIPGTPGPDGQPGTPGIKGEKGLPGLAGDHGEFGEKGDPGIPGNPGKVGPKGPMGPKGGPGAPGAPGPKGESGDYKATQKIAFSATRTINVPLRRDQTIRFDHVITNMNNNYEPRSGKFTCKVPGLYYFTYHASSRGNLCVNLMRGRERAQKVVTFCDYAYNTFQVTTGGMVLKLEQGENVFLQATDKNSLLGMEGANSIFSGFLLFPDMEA
T1 sequence (P02747 29-245, chain 3 of 3): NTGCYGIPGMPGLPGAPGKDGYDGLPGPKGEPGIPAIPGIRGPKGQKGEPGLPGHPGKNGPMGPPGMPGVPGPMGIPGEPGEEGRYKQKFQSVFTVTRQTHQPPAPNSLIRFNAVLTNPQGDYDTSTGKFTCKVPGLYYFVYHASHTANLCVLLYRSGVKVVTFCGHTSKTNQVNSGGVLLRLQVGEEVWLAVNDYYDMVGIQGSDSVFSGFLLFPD

[2] = target: T2, Alexa Fluor 488-labelled C1q (human, UniProt P02745 23-245; P02746 28-253; P02747 29-245, Alexa Fluor 488 (site and chain not stated) | Alexa Fluor 488 (site and chain not stated) | Alexa Fluor 488 (site and chain not stated)); test: real-time fluorescence binding (LigandTracer); THP-1 microvesicles (0.5 mg/ml) spotted on nitrocellulose, blocked with 5% BSA; Alexa Fluor 488-labelled C1q added with or without pCRP; settings: both partners purified
T2 construct: Complement C1q subcomponent subunit A, human; Complement C1q subcomponent subunit B, human; Complement C1q subcomponent subunit C, human; Same protein as m3 with a fluorescent label; source: labelled with Alexa Fluor 488; copies: 6 + 6 + 6
T2 sequence (P02745 23-245, chain 1 of 3): as the sequence (P02745 23-245, chain 1 of 3) above
T2 sequence (P02746 28-253, chain 2 of 3): as the sequence (P02746 28-253, chain 2 of 3) above
T2 sequence (P02747 29-245, chain 3 of 3): as the sequence (P02747 29-245, chain 3 of 3) above

binding result [1]: binds
binding result [2]: binds
B1: pentameric C-reactive protein (natural protein, human, UniProt P02741 19-224, looked up)
chain: QTDMSRKAFVFPKESDTSYVSLKAPLTKPLKAFTVCLHFYTELSSTRGYSIFSYATKRQDNEILIFWSKDIGYSFTVGGSEILFEVPEVTVAPVHICTSWESASGIVEFWVDGKPRVRKSLKKGYTVGAEASIILGQEQDSFGGNFEGSQSLVGDIGNVNMWDFVLSPDEINTIYLGGPFSPNVLNWRALKYEVQGEVFTKPQLWP
notes: C-reactive protein, human; five identical subunits of about 23 kDa; also called pCRP; CRP; source: bought: Calbiochem; dialysed against D-PBS with 2 mM Ca2+
